For test [1], the target named is T1, Core_NIII-es_KKKE.
T1 chain: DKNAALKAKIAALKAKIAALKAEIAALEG
Description: two-hybrid library CCmax.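 Also: natural log of median RNA to DNA barcode read ratio; higher means stronger binding.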 To be noted: mean of both orientations.

Test [2] concerns the target T2, O11-AA.
T2 chain: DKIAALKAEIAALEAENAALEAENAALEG
Description: two-hybrid library CCmax.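 Also: natural log of median RNA to DNA barcode read ratio; higher means stronger binding.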 To be noted: mean of both orientations.

Test [3] addresses T3, 4H3697-AA.
T3 chain: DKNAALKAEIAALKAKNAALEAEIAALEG
Nature of the test: two-hybrid library CCmax.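 Also: natural log of median RNA to DNA barcode read ratio; higher means stronger binding.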 To be noted: mean of both orientations.

Test [4] deals with T4, 4H458-AA.
T4 chain: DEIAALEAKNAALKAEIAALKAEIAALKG
Nature of the test: two-hybrid library CCmax.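 Also: natural log of median RNA to DNA barcode read ratio; higher means stronger binding.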 To be noted: mean of both orientations.

Test [5] has as its target T5, 4H_BCR.
T5 chain: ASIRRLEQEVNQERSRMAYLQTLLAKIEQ
Description: two-hybrid library CCmax.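 Also: natural log of median RNA to DNA barcode read ratio; higher means stronger binding.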 To be noted: mean of both orientations.

Test [6] addresses T6, 4H3905-AA.
T6 chain: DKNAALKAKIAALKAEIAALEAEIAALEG
Nature of the test: two-hybrid library CCmax.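 Also: natural log of median RNA to DNA barcode read ratio; higher means stronger binding.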 To be noted: mean of both orientations.

Test [7] has as its target T7, P5-AA-12HAA-L.
T7 chain: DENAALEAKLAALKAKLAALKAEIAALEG
Description: two-hybrid library CCmax. To be noted: mean of both orientations.

In test [8] the target is T8, 4H930-AA.
T8 chain: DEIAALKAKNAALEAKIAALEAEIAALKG
Description: two-hybrid library CCmax. To be noted: mean of both orientations.

Test [9] addresses GCN2_T. Description: two-hybrid library CCmax. To be noted: mean of both orientations.
Test [10] addresses T9, 4H3753-AA.
T9 chain: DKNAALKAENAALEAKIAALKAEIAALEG
Nature of the test: two-hybrid library CCmax. To be noted: mean of both orientations.

For test [11], the target named is T10, 4H94-AA.
T10 chain: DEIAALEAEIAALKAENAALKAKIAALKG
Nature of the test: two-hybrid library CCmax. To be noted: mean of both orientations.

For test [12], the target named is T11, P5-AA-12HAA-H.
T11 chain: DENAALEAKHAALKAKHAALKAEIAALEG
Nature of the test: two-hybrid library CCmax. To be noted: mean of both orientations.

Test [13] concerns the target T12, 4H384-AA.
T12 chain: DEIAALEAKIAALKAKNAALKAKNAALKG
Description: two-hybrid library CCmax. To be noted: mean of both orientations.

Test [14] addresses T13, 4H451-AA.
T13 chain: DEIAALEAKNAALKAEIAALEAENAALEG
Nature of the test: two-hybrid library CCmax. To be noted: mean of both orientations.

The target in test [15] is T14, 4H909-AA.
T14 chain: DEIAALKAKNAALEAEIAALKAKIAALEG
Nature of the test: two-hybrid library CCmax. To be noted: mean of both orientations.

The target of test [16] is T15, P5-AA-12HAA-T.
T15 chain: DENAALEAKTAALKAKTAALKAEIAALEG
Description: two-hybrid library CCmax. To be noted: mean of both orientations.

Test [17] addresses T16, 4H570-AA.
T16 chain: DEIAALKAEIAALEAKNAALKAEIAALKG
Nature of the test: two-hybrid library CCmax. To be noted: mean of both orientations.

In test [18] the target is T17, P5-AA-12HAA-R.
T17 chain: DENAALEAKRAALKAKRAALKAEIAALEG
Nature of the test: two-hybrid library CCmax. To be noted: mean of both orientations.

Test [19] deals with T18, 4H3865-AA.
T18 chain: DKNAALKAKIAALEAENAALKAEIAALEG
Description: two-hybrid library CCmax. To be noted: mean of both orientations.

In test [20] the target is T19, 4H536-AA.
T19 chain: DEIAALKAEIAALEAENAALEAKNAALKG
Nature of the test: two-hybrid library CCmax. To be noted: mean of both orientations.

Test [21] deals with 4H_GCN4. Description: two-hybrid library CCmax.
Chain of 4H_GCN4 (chain, as listed by the source): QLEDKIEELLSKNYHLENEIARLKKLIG
Test [22] concerns the target T20, 4H797-AA.
T20 chain: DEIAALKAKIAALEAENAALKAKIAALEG
Nature of the test: two-hybrid library CCmax. To be noted: mean of both orientations.

The target of test [23] is T21, O13-AA.
T21 chain: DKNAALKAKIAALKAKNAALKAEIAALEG
Description: two-hybrid library CCmax. To be noted: mean of both orientations.

Test [24] addresses T22, P5-AA-12HAA-Y.
T22 chain: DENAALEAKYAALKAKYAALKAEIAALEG
Description: two-hybrid library CCmax. To be noted: mean of both orientations.

Test [25] addresses T23, 4H745-AA.
T23 chain: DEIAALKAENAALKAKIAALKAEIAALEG
Description: two-hybrid library CCmax. To be noted: mean of both orientations.

For test [26], the target named is T24, O14-AA.
T24 chain: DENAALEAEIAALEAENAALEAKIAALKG
Description: two-hybrid library CCmax. To be noted: mean of both orientations.

For test [27], the target named is T25, 4H_APH.
T25 chain: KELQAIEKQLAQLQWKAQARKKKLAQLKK
Nature of the test: two-hybrid library CCmax. To be noted: mean of both orientations.

In test [28] the target is T26, 4H850-AA.
T26 chain: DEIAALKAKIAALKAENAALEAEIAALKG
Description: two-hybrid library CCmax. To be noted: mean of both orientations.

The target of test [29] is T27, P5-AA-1HAA-N.
T27 chain: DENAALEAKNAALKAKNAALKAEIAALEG
Nature of the test: two-hybrid library CCmax. To be noted: mean of both orientations.

Test [30] concerns the target T28, P5-AA-12HAA-S.
T28 chain: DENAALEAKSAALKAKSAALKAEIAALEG
Nature of the test: two-hybrid library CCmax. To be noted: mean of both orientations.

The target in test [31] is T29, 4H891-AA.
T29 chain: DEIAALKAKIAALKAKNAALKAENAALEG
Nature of the test: two-hybrid library CCmax.

For test [32], the target named is T30, P5-AA-12HAA-A.
T30 chain: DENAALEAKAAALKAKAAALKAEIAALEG
Description: two-hybrid library CCmax. To be noted: mean of both orientations.

Test [33] has as its target T31, 4H43-AA.
T31 chain: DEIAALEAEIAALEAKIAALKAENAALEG
Description: two-hybrid library CCmax. To be noted: mean of both orientations.

The target of test [34] is T32, 4H629-AA.
T32 chain: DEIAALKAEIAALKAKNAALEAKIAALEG
Description: two-hybrid library CCmax. To be noted: mean of both orientations.

Test [35] concerns the target T33, 4H510-AA.
T33 chain: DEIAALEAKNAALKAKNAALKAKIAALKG
Description: two-hybrid library CCmax. To be noted: mean of both orientations.

Test [36] concerns the target T34, 4H710-AA.
T34 chain: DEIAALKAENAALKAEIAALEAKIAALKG
Nature of the test: two-hybrid library CCmax. To be noted: mean of both orientations.

Test [37] deals with T35, 4H4038-AA.
T35 chain: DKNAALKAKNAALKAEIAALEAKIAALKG
Description: two-hybrid library CCmax. To be noted: mean of both orientations.

The target of test [38] is T36, P5-AA-12HAA-K.
T36 chain: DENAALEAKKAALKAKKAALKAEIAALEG
Description: two-hybrid library CCmax. To be noted: mean of both orientations.

For test [39], the target named is T37, P5-AA-12HAA-D.
T37 chain: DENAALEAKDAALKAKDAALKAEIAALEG
Description: two-hybrid library CCmax. To be noted: mean of both orientations.

For test [40], the target named is T38, 4H3590-AA.
T38 chain: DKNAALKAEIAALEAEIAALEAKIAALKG
Nature of the test: two-hybrid library CCmax.

Test [41] addresses T39, 4H3625-AA.
T39 chain: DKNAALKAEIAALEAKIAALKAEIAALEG
Nature of the test: two-hybrid library CCmax. To be noted: mean of both orientations.

The target in test [42] is T40, 4H485-AA.
T40 chain: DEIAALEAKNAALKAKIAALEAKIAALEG
Nature of the test: two-hybrid library CCmax. To be noted: mean of both orientations.

The target in test [43] is T41, P5-AA-12HAA-V.
T41 chain: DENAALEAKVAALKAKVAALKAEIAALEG
Description: two-hybrid library CCmax. To be noted: mean of both orientations.

In test [44] the target is T42, P5-AA-12HAA-E.
T42 chain: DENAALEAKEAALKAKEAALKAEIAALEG
Description: two-hybrid library CCmax. To be noted: mean of both orientations.

The target of test [45] is T43, 4H342-bN.
T43 chain: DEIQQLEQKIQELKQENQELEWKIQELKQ
Nature of the test: two-hybrid library CCNG1.

Test [46] deals with T44, 4H491-bN.
T44 chain: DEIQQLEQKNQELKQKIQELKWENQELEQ
Nature of the test: two-hybrid library CCNG1.

Test [47] addresses T45, 4H2937-bN.
T45 chain: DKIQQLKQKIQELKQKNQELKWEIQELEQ
Description: two-hybrid library CCNG1.

Test [48] has as its target T46, 4H48-bN.
T46 chain: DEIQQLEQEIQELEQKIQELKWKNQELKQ
Nature of the test: two-hybrid library CCNG1.

Test [49] deals with T47, 4H2883-bN.
T47 chain: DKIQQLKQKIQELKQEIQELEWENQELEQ
Nature of the test: two-hybrid library CCNG1.

The target of test [50] is T48, 4H2696-bN.
T48 chain: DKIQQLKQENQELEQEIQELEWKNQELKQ
Description: two-hybrid library CCNG1.

The target in test [51] is T49, 4H19-bN.
T49 chain: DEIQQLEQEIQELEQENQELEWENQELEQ
Description: two-hybrid library CCNG1.

Test [52] addresses T50, 4H2944-bN.
T50 chain: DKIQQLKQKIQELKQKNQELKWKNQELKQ
Nature of the test: two-hybrid library CCNG1.

The target in test [53] is T51, Core_NNNN-es_KEEK.
T51 chain: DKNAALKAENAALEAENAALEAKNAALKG
Nature of the test: two-hybrid library CCmax. To be noted: mean of both orientations.

For DENAALEAEIAALEAEIAALEAKIAALKG [Core_NIII-es_EEEK], the interaction score in test [1] came to 2.14.

Consider DKNAALKAEIAALEAEIAALEAKIAALKG [4H3590-AA], for which the interaction score in test [2] is -0.698; in test [3] it was -0.287; in test [4], 1.13; in test [5], -0.0889; in test [6], 2.01; in test [7] it was 2.42. Besides, the interaction score was -1.4 in test [8]; -0.424 in test [9]; 0.435 in [10]; -1.15 in test [11]; 1.78 in test [12]; 1.26 in test [13]. For the same molecule, the interaction score in test [14] is -1.08; in test [15] it was -1.14; in test [16] it was 1.63; in [17], -0.136; in test [18], 1.92; in test [19], -1.18. In addition, the interaction score in [20] was -0.687; in test [21], -1.16; in test [22] it was -1.01; in test [23] it was 1.33; in test [24], 2.53; in [25], 1.02. The interaction score in [26] is -1.17; in test [27], -0.247; in [28] it was -0.0746; in [29], -0.0553; in test [30] it was 1.88; in test [31] it was -0.048. Further, the interaction score is 1.75 in [32]; 1.98 in test [33]; -0.923 in test [34]; -0.0505 in [35]; -1.14 in test [36]; -0.327 in test [37]. For the same molecule, the interaction score in [38] is 2.23; in [39], -1.25; in [40], 2.25; in [41] it was 2.07; in [42], 1.8; in test [43] it was 2.25. Besides, in test [44], the interaction score is -0.101.

DEIQQLEQEIQELEQENQELEWENQELEQ [4H19-bN]: the interaction score in test [45] was -1.48; in test [46], -0.636; in test [47], -0.594; in test [48], -0.58; in test [49], -2.16; in [50] it was -0.528. In addition, the interaction score was -0.738 in [51] and 2.27 in [52].

Regarding DENAALEAKNAALKAKNAALKAENAALEG [Core_NNNN-es_EKKE], in test [53], the interaction score was -0.488.

For the origin of these results see PMC10397247.
